According to patent US20220125891A1 (OSAKA UNIVERSITY, published 2022):
Positions of bridges follow the written chain, without caps; N, C: chain ends. Non-standard residues stand in square brackets, D forms with d. No end group written: not given here. NMeA = CN[C@@H](C)C(=O)O; dNMeA = CN[C@H](C)C(=O)O

T1: full-length human Regnase-1 with a FLAG tag on the N-terminal side and a biotin ligase BirA recognition … (human, UniProt Q5D1E8 1-599, biotinylated where required ; Biotinylated at the BirA recognition sequence where required. That sequence is not in the letters.)
T1 sequence: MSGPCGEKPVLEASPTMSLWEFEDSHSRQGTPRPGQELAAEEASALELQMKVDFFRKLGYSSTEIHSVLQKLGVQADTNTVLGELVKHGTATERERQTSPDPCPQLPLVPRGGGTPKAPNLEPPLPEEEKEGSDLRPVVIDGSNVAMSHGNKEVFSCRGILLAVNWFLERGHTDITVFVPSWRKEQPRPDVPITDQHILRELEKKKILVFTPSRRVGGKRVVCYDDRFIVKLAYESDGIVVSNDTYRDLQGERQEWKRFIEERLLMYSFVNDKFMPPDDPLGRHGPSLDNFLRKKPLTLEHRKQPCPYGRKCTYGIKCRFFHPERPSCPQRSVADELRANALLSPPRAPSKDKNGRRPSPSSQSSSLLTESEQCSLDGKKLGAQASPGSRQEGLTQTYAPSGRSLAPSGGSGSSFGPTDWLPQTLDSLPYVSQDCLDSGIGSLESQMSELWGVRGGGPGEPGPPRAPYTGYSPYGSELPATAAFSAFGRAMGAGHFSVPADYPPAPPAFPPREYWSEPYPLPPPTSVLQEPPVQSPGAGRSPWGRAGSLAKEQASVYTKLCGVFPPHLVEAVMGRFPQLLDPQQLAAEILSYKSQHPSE

T2: Reg1_301-599 (human Regnase-1 amino acids 301 to 599, FLAG tag on the N-terminal side, BirA recognition … (human))
T2 sequence (Q5D1E8 301-599, looked up): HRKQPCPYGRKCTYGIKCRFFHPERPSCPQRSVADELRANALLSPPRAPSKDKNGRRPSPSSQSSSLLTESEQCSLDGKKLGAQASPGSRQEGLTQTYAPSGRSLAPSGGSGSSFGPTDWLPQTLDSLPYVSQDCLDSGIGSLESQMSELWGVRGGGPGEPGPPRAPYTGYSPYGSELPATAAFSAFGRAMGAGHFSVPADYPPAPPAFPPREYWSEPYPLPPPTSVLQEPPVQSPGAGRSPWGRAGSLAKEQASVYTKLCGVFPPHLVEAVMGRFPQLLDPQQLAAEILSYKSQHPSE

B1: PP2 (peptide)
peptide: [NMeA]GYANSWYNIWD
modifications: lactam N-12
B2: PP4 (peptide)
peptide: [NMeA]YIWDFFGDLD
modifications: lactam N-11
B3: PP6 (peptide)
peptide: [dNMeA]PNSSWFKIWD
modifications: lactam N-11
B4: PP3 (peptide)
peptide: [dNMeA]KHASAWYRIWD
modifications: lactam N-12
B5: PP5 (peptide)
peptide: [NMeA]HSNAWYNIWD
modifications: lactam N-11
B6: PP1 (peptide)
peptide: [NMeA]TSWYKVNWGQD
modifications: lactam N-12
B7: REB0007 (antibody, V domains shown)
VH: QEQLEESGGDLVKPEGSLTLTCTASGFSFNSRYWICWVRQAPGKGLEWIGCIVSGDSNTYYASWAKGRFTISKTSSTTVTLQMTSLTAADTATYFCARWYTSSRPGLWGPGTLVTVSS
VL: DVVMTQTPASVSEPVGGTVTIKCQASQSISSYLSWYQQKPGQPPKLLIYSATNLASGVSSRFKGSRFGTEFTLTISDLECDDAATYYCQCSYYVSGFAFGGGTEVVVKG
notes: Rabbit antibody gene expressed in HEK293 cells, purified by Protein A; also called anti-Regnase-1 antibody; anti-non-phosphorylated Regnase-1 peptide antibody
B8: REB0014 (antibody, V domains shown)
VH: QSLEESGGGLVKPGGTLTLTCKASGIDFSSYYYMCWVRQAPGKGLEWIACIYSGDGSSYYVSWANGRFTISKTSSATVTLQMTSLTAADTATYFCARDLGNLWGPGTLVTVSS
VL: QVLTQTPASVSAAVGGTVTINCQASQSVYKNSGLSWFQQKPGQSPKRLIYSASTLDSGVPSRFKGSGSGTQFTLTISDVQCDDAATYYCLGIYVCSSVDCGAFGGGTEVVVKG
notes: as for B7

molecular target: T1, full-length human Regnase-1 with a FLAG …; assay: cell-based or functional assay

Row | Binder | IC50, phosphorylation by IKKβ | IC50, phosphorylation by TBK1
1 | B1 | 16.6 µM | 21.7 µM
2 | B2 | 19.5 µM | 61.9 µM
3 | B3 | 17 µM | 13.1 µM
4 | B4 | 4.6 µM | 3.9 µM
5 | B5 | 23.6 µM | 24.2 µM
6 | B6 | 28.1 µM | 54.5 µM

molecular target: T3, ΔCTD_Reg1 (human Regnase-1 amino acids 1 to 546, FLAG tag on the N-terminal side, BirA recognition sequence … (human)); assay: cell-based or functional assay

Row | Binder | IC50, phosphorylation by IKKβ | IC50, phosphorylation by TBK1
7 | B1 | 14 µM | 17.6 µM
8 | B2 | 8.3 µM | 44.9 µM
9 | B3 | 20.3 µM | 14.5 µM
10 | B4 | 8.3 µM | 5.7 µM
11 | B5 | 20.4 µM | 19.1 µM
12 | B6 | > 62.1 µM | > 62.1 µM

molecular target: T1, full-length human Regnase-1 with a FLAG …; assay: flow cytometry of antigen-coated streptavidin beads

Row | Binder | binding result
13 | B7 | binds
14 | B8 | binds

molecular target: T1, full-length human Regnase-1 with a FLAG …; assay: AlphaScreen, blocks TBK1 binding to FL_Reg1

Row | Binder | IC50
15 | B1 | 15.5 µM
16 | B2 | 24.4 µM
17 | B3 | 19.2 µM
18 | B4 | 3.1 µM
19 | B5 | 11.5 µM
20 | B6 | > 62.1 µM

molecular target: T2, Reg1_301-599 (human Regnase-1 amino …); assay: cell-based or functional assay

Row | Binder | IC50, phosphorylation by IKKβ
21 | B1 | 18.5 µM
22 | B2 | 12.8 µM
23 | B3 | 17.5 µM
24 | B4 | 6.8 µM
25 | B5 | 31.3 µM
26 | B6 | > 62.1 µM

molecular target: T1, full-length human Regnase-1 with a FLAG …; assay: cell-based or functional assay; remark: another data set of the same source

Row | Binder | IC50, phosphorylation by IKKβ
27 | B1 | 16.6 µM
28 | B2 | 19.5 µM
29 | B3 | 17 µM
30 | B4 | 4.6 µM
31 | B5 | 23.6 µM
32 | B6 | 28.1 µM

molecular target: T3, ΔCTD_Reg1 (human Regnase-1 amino acids …); assay: cell-based or functional assay; remark: another data set of the same source

Row | Binder | IC50, phosphorylation by IKKβ
33 | B1 | 14 µM
34 | B2 | 8.3 µM
35 | B3 | 20.3 µM
36 | B4 | 8.3 µM
37 | B5 | 20.4 µM
38 | B6 | > 62.1 µM

molecular target: T1, full-length human Regnase-1 with a FLAG …; assay: affinity selection-MS (SEC, LC/MS), 1 µM each

Row | Binder | AS-MS ratio(%)
39 | B1 | 14.2%
40 | B2 | 37.5%
41 | B3 | 6.4%
42 | B4 | 1.2%
43 | B5 | 20.8%
44 | B6 | 21.8%

molecular target: T1, full-length human Regnase-1 with a FLAG …; assay: AlphaScreen, blocks IKKβ binding to FL_Reg1

Row | Binder | IC50
45 | B1 | 35.8 µM
46 | B2 | 47.7 µM
47 | B3 | 42.1 µM
48 | B4 | 8.3 µM
49 | B5 | 24 µM
50 | B6 | > 62.1 µM

molecular target: T1, full-length human Regnase-1 with a FLAG …; assay: AlphaScreen, blocks IKKβ binding to FL_Reg1; remark: another data set of the same source

Row | Binder | IC50
51 | B1 | 35.8 µM
52 | B2 | 47.7 µM
53 | B3 | 42.1 µM
54 | B4 | 8.3 µM
55 | B5 | 24 µM
56 | B6 | > 62.1 µM

molecular target: T1, full-length human Regnase-1 with a FLAG …; assay: AlphaScreen, blocks TBK1 binding to FL_Reg1; remark: another data set of the same source

Row | Binder | IC50
57 | B1 | 15.5 µM
58 | B2 | 24.4 µM
59 | B3 | 19.2 µM
60 | B4 | 3.1 µM
61 | B5 | 11.5 µM
62 | B6 | > 62.1 µM

molecular target: T2, Reg1_301-599 (human Regnase-1 amino …); assay: cell-based or functional assay; remark: another data set of the same source

Row | Binder | IC50, phosphorylation by TBK1
63 | B1 | 22.4 µM
64 | B2 | 35.9 µM
65 | B3 | 16.8 µM
66 | B4 | 7.1 µM
67 | B5 | 40.4 µM
68 | B6 | > 62.1 µM

molecular target: T1, full-length human Regnase-1 with a FLAG …; assay: cell-based or functional assay; remark: another data set of the same source

Row | Binder | IC50, phosphorylation by TBK1
69 | B1 | 21.7 µM
70 | B2 | 61.9 µM
71 | B3 | 13.1 µM
72 | B4 | 3.9 µM
73 | B5 | 24.2 µM
74 | B6 | 54.5 µM

molecular target: T3, ΔCTD_Reg1 (human Regnase-1 amino acids …); assay: cell-based or functional assay; remark: another data set of the same source

Row | Binder | IC50, phosphorylation by TBK1
75 | B1 | 17.6 µM
76 | B2 | 44.9 µM
77 | B3 | 14.5 µM
78 | B4 | 5.7 µM
79 | B5 | 19.1 µM
80 | B6 | > 62.1 µM
